Assay results taken from US20240287138A1 (Merck Sharp & Dohme, published 2024).
Bridge positions count the residues as written; N and C are the ends. Square brackets hold non-standard residues; d marks the D form. Primed or numbered codes have the meaning given here. Trp(βS-Me,7-OMe) = COc1cccc2c([C@H](C)[C@H](N)C(=O)O)c[nH]c12; Phe(2-F,4-COOH) = N[C@@H](Cc1ccc(C(=O)O)cc1F)C(=O)O; Trp(7-CN) = N#Cc1cccc2c(C[C@H](N)C(=O)O)c[nH]c12; Trp(7-Cl) = N[C@@H](Cc1c[nH]c2c(Cl)cccc12)C(=O)O; Phe(4-CONH2) = NC(=O)c1ccc(C[C@H](N)C(=O)O)cc1; Phe(4-COOH) = N[C@@H](Cc1ccc(C(=O)O)cc1)C(=O)O; Trp(7-aza) = N[C@@H](Cc1c[nH]c2ncccc12)C(=O)O; Phe(4-CH2NH2) = NCc1ccc(C[C@H](N)C(=O)O)cc1; 4Pal = N[C@@H](Cc1ccncc1)C(=O)O; NMeE = CN[C@@H](CCC(=O)O)C(=O)O; dHyp = O=C(O)[C@H]1C[C@H](O)CN1; Phe4AcPip = not defined here; αMeS = C[C@](N)(CO)C(=O)O; Nle = CCCC[C@H](N)C(=O)O; Pip2c = not defined here; cAcBu = not defined here; Ahp′ = not defined here; Pip′ = not defined here; MO2 = not defined here; Qdm = not defined here; Sar = CNCC(=O)O

T1: TNFR1 on THP-1 Lucia NF-kB reporter cells (UniProt P19438 30-455, limits assumed)
T1 sequence (looked up): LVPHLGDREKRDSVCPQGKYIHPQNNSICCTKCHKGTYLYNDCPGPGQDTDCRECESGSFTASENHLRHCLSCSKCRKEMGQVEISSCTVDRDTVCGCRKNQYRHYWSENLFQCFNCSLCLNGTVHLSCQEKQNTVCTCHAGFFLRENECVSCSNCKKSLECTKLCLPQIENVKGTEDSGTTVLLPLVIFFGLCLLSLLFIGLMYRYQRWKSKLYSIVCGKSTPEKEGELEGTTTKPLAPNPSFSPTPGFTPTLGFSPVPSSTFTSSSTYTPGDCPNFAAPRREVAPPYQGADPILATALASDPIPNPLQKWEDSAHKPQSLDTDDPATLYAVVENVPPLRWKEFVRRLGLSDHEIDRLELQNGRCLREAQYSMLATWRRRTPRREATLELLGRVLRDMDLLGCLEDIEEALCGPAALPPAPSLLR

B1: SEQ ID NO. 75 (peptide)
peptide: {CH2CO}-[Nle][4Pal][Pip2c]W[NMeE][Qdm][4Pal][Trp(7-Cl)][αMeS][Phe(4-COOH)]Y[Sar][Trp(βS-Me,7-OMe)]C-NH2
modifications: thioether N-14 (inferred); reading uncertain; also: printed as cyclo(ClAc-Nle-4Pal-Pip2c-W-NMeE-Qdm-4Pal-Trp7Cl-aMeS-Phe4COOH-Y-Sar-SbMeW7OMe-C)-NH2
B2: SEQ ID NO. 58 (peptide)
peptide: {CH2CO}-[Nle][4Pal][Pip′][Trp(7-aza)][NMeE]N[Phe(4-CH2NH2)][Trp(7-Cl)][αMeS][Phe(4-CH2NH2)]Y[Sar][Trp(βS-Me,7-OMe)]C-NH2
modifications: thioether N-14
B3: SEQ ID NO. 65 (peptide)
peptide: {CH2CO}-[Nle][PyrimAla][Pip2c][Trp(7-aza)][NMeE]N[4Pal][Trp(7-Cl)][αMeS][Phe(4-COOH)]Y[Sar][Trp(βS-Me,7-OMe)]C-NH2
modifications: thioether N-14; reading uncertain; also: printed as cyclo(ClAc-Nle-PyrimAla-Pip2c-Trp7az-NMeE-N-4Pal-Trp7Cl-aMeS-Phe4COOH-Y-Sar-SbMeW7OMe-C)-NH2
B4: SEQ ID NO. 7 (peptide)
peptide: cyclo([bhcLeu][Nle][4Pal][Pip2c]W[NMeE]N[4Pal][Trp(7-Cl)][αMeS][Phe(2-F,4-COOH)]Y[Sar][Trp(βS-Me,7-OMe)])
modifications: reading uncertain; also: printed as cyclo(bhcLeu-Nle-4Pal-Pip2c-W-NMeE-N-4Pal-Trp7Cl-aMeS-Phe2F4COOH-Y-Sar-SbMeW7OMe)
B5: SEQ ID NO. 63 (peptide)
peptide: cyclo([bhcLeu][Nle][4Pal][Pip2c]W[NMeE]N[4Pal][Trp(7-Cl)][αMeS][Phe(4-COOH)][Phe4AcPip][Sar][Trp(βS-Me,7-OMe)])
modifications: reading uncertain; also: printed as cyclo(bhcLeu-Nle-4Pal-Pip2c-W-NMeE-N-4Pal-Trp7Cl-aMeS-Phe4COOH-Phe4AcPip-Sar-SbMeW7OMe)
B6: SEQ ID NO. 71 (peptide)
peptide: {CH2CO}-[Nle][4Pal][Pipc4OH]W[NMeE]N[4Pal][Trp(7-Cl)][αMeS][Phe(4-COOH)]Y[Sar][Trp(βS-Me,7-OMe)]C-NH2
modifications: thioether N-14 (inferred)
B7: SEQ ID NO. 69 (peptide)
peptide: cyclo([cAcBu][Nle][4Pal][Pip2c]W[NMeE]N[4Pal][Trp(7-Cl)][αMeS][Phe(4-COOH)]Y[Sar][Trp(βS-Me,7-OMe)])
modifications: reading uncertain; also: printed as cyclo(cAcBu-Nle-4Pal-Pip2c-W-NMeE-N-4Pal-Trp7Cl-aMeS-Phe4COOH-Y-Sar-SbMeW7OMe)
B8: SEQ ID NO. 64 (peptide)
peptide: cyclo([bhcLeu][Nle][4Pal][Pip2c]W[NMeE][MO2][4Pal][Trp(7-Cl)][αMeS][Phe(4-COOH)]Y[Sar][Trp(βS-Me,7-OMe)])
modifications: reading uncertain; also: printed as cyclo(bhcLeu-Nle-4Pal-Pip2c-W-NMeE-MO2-4Pal-Trp7Cl-aMeS-Phe4COOH-Y-Sar-SbMeW7OMe)
B9: SEQ ID NO. 55 (peptide)
peptide: cyclo([bhcLeu][Ahp′][SbMe4Pal]DW[dHyp]N[Phe(4-COOH)][Trp(7-CN)][αMeS][Phe(4-CONH2)][Phe(4-CONH2)][Sar][Trp(βS-Me,7-OMe)])
modifications: reading uncertain; also: printed as cyclo(bhcLeu-Ahp-SbMe4Pal-D-W-dProt4OH-N-Phe4COOH-Trp7CN-aMeS-Phe4CONH2-Phe4CONH2-Sar-SbMeW7OMe)

Molecular target: T1, TNFR1 on THP-1 Lucia NF-kB reporter …
Assay: cell-based or functional assay

Row | THP-1 IC50 | Binder
1 | 6.1 nM | B1
2 | 16.2 nM | B2
3 | 4 nM | B3
4 | 1.6 nM | B4
5 | 1.2 nM | B5
6 | 2.8 nM | B6
7 | 1.6 nM | B7
8 | 1.1 nM | B8
9 | 1.3 nM | B9
